This is an account of results in patent publication US5792634.

This assay deals with RNA polymerase II purified from rat liver (rat).

Bounds are passed on as bounds.

In the case of “RNA polymerase transcription factor SIII (Elongin), purified from rat liver”, the rate of RNA chain elongation, runoff transcription from the AdML promoter was greater than 5 fold.
